Paper PMC10516938, “Conformational dynamics of cohesin/Scc2 loading complex are regulated by Smc3 acetylation and ATP binding” (Nature Communications, 2023)

Target: T1, Smc3^QQ W483R R1008I K1004C (S. cerevisiae, UniProt P47037 1-1230, K112Q | K113Q | W483R | K1004C | R1008I)
T1 construct: Smc3, S. cerevisiae; also called smc3-QQ K1004C with R1008I and W483R; source: S. cerevisiae W303, late G1 arrested cells, whole-cell extract
T1 sequence (looked up): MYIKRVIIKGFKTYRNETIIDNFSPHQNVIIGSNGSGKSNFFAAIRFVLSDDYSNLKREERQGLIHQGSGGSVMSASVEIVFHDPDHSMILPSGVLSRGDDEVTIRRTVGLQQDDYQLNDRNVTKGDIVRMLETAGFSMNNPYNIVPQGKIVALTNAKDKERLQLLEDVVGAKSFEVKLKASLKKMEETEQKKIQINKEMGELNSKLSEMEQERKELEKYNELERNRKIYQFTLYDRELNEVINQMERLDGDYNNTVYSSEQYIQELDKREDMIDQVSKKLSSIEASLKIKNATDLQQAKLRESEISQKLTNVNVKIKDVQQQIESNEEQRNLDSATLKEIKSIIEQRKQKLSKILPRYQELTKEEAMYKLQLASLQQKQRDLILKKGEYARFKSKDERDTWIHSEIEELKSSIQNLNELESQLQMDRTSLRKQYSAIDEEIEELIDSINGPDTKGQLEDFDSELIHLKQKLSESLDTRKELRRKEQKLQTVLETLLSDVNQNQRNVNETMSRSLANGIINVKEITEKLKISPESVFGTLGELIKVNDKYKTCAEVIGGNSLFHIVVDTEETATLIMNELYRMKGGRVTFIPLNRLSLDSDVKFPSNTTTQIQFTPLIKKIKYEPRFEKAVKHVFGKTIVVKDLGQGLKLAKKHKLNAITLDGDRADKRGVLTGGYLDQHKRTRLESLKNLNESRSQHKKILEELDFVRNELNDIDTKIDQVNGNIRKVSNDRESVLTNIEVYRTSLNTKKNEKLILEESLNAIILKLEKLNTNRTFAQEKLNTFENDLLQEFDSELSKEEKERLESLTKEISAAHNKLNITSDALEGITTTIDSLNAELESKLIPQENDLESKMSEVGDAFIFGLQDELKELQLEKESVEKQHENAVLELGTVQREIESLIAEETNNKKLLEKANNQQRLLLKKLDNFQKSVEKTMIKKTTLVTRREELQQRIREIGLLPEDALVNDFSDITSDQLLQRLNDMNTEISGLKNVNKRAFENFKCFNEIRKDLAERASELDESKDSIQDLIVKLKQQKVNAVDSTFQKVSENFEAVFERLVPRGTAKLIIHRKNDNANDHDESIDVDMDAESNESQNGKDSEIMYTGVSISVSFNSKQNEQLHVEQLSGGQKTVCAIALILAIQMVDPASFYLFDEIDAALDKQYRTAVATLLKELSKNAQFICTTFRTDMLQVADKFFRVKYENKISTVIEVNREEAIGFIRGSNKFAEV
Test: cross-linking; in vivo BMOE cross-link of cysteine pairs in yeast cells arrested in late G1 by non-degradable Sic1(9m); Scc1-PK immunoprecipitated, western blot, band intensities quantified
Settings: partners not purified

crosslink relative to wild type: ~70%
B1: Scc2 D369C (natural protein, S. cerevisiae, UniProt Q04002 1-1493, looked up)
chain: MSYPGKDKNIPGRIIEALEDLPLSYLVPKDGLAALVNAPMRVSLPFDKTIFTSADDGRDVNINVLGTANSTTSSIKNEAEKERLVFKRPSNFTSSANSVDYVPTNFLEGLSPLAQSVLSTHKGLNDSINIEKKSEIVSRPEAKHKLESVTSNAGNLSFNDNSSNKKTKTSTGVTMTQANLAEQYLNDLKNILDIVGFDQNSAEIGNIEYWLQLPNKKFVLTTNCLTKLQMTIKNITDNPQLSNSIEITWLLRLLDVMVCNIKFSKSSLKMGLDDSMLRYIALLSTIVLFNIFLLGKNDSNLHRESYIMEPVNFLSDLIESLKILTIEYGSLKIEFDTFQEALELLPKYIRNGPFLDDNVTAKLVYIFSCLLMNNDIEATTNIQFQSFWDNVKRISSDILVSLFGSFDQQRGFIIEELLSHIEKLPTKRIQKKLRKVGNQNIYITDFTFTLMSMLENINCYSFCNQMKDIAPENIDLLKNEYKKQEEFLFNIVEHINDTILERFFKNPSALRYVIDNFVQDLLLLISSPQWPVTEKILSSLLKRLLSVYSPSMQVSANIETICLQLIGNIGSTIFDIKCSTRDHEDNNLIKMINYPETLPHFFKSFEECIAYNETIKCRRSATRFLWNLRLGTILILEEYTKDAKEQIITVDNELKKILEQIKDGGLGPELENREADFSTIKLDYFSILHAFELLNLYDPYLKLILSLLAKDKIKLRSTAIKCLSMLASKDKVILSNPMVKETIHRRLNDSSASVKDAILDLVSINSSYFEFYQQINNNYNDDSIMVRKHVLRINEKMYDETNDIVTKVYVIARILMKIEDEEDNIIDMARLILLNRWILKVHEVLDQPEKLKEISSSVLLVMSRVAIMNEKCSQLFDLFLNFYLLNKEAHSKEAYDKITHVLTILTDFLVQKIVELNSDDTNEKNSIVDKQNFLNLLAKFADSTVSFLTKDHITALYPYMVSDEKSDFHYYILQVFRCTFEKLANFKQKFLYDLETTLLSRLPKMNVREIDEAMPLIWSVATHRHDTARVAKACSSCLSHLHPYINKANNEEAAIVVDGKLQRLIYLSTGFARFCFPKPSNDKIAFLQEGETLYEHITKCLLVLSKDKITHVIRRVAVKNLTKLCGNHPKLFNSRHVLHLLDKEFQSDQLDIKLVILESLYDLFLLEERKSVRNTGVNSTLSSNSILKKKLLKTNRVEFANDGVCSALATRFLDNILQLCLLRDLKNSLVAIRLLKLILKFGYTNPSHSIPTVIALFASTSQYIRHVAYELLEDLFEKYETLVFSSLSRGVTKAIHYSIHTDEKYYYKHDHFLSLLEKLCGTGKKNGPKFFKVLKRIMQSYLDDITDLTSTNSSVQKSIFVLCTNISNITFVSQYDLVSLLKTIDLTTDRLKEVIMDEIGDNVSSLSVSEEKLSGIILIQLSLQDLGTYLLHLYGLRDDVLLLDIVEESELKNKQLPAKKPDISKFSAQLENIEQYSSNGKLLTYFRKHVKDT
notes: Scc2, S. cerevisiae; source: S. cerevisiae W303, in vivo, whole-cell extract
